How the values were obtained:
[1] = molecular target: T1, RSV postfusion F (postF), subtype A (respiratory syncytial virus subtype A, UniProt P03420 26-513); test: BLI
T1 construct: also called Postfusion subtype A; F deltaFP

[2] = molecular target: T2, RSV prefusion F (preF), subtype B (respiratory syncytial virus subtype B); test: BLI, IgG
T2 construct: also called Prefusion subtype B

| Binder | binding result [1] | Kd [2] [nM] |
| --- | --- | --- |
| ADI-19440 (antibody, V domains shown, full-length IgG) VH: EVQLVESGGGLVQPGGSLRLSCAASGFTFSSYSMNWVRQAPGKGLEWVSYISSSSSTIYYADSVKGRFTISRDNAKNSLYLQMNSLRAEDTAVYYCAREGYSGSYGYYFDYWGQGTLVTVSS VL: QSVLTQPPSVSGAPGQRVTISCTGSSSNIGAGYDVHWYQQLPGTAPKLLIYGNSNRPSGVPDRFSGSKSGTSASLAITGLQAEDEADYYCQSYDSSLSGSVFGTGTKLTVL | no binding | 14.3 |
| ADI-19457 (antibody, V domains shown, full-length IgG) VH: EVQLLESGGGLVKPGGSLRLSCAASGFTFSSYSMNWVRQAPGKGLEWVSSISSSSSYIYYADSVKGRFTISRDNAKNSLYLQMNSLRAEDTAVYYCARQGYCSGGSCYHIDYWGQGTLVTVSS VL: QSVVTQPPSVSGAPGQRVTISCTGSSSNIGAGYDVHWYQQLPGTAPKLLIYGNSNRPSGVPDRFSGSKSGTSASLAITGLQAEDEADYYCQSYDSSLSGWVFGGGTKLTVL | no binding | 16.7 |
| ADI-19449 (antibody, V domains shown, full-length IgG) VH: EVQLVESGGGLVKPGGSLRLSCAASGFTFSSYSMNWVRQAPGKGLEWVSSISSSSSYIYYADSVKGRFTISRDNAKNSLYLQMNSLRAEDTAVYYCARDSGSYLSYAFDIWGQGTMVTVSS VL: SYELTQPPSVSGAPGQRVTISCTGSSSNIGAGYDVHWYQQLPGTAPKLLIYGNSNRPSGVPDRFSGSKSGTSASLAITGLQAEDEADYYCQSYDSSLSGYVFGTGTKVTVL | no binding | 26 |
| ADI-25557 (antibody, V domains shown, full-length IgG) VH: EVQLLESGGGLVKPGGSLRLSCAASGFTFSSYSMNWVRQAPGKGLEWVSSISSSSSYIYYADSVKGRFTISRDNAKNSLYLQMNSLRAEDTAVYYCARGYGSGSYLDYFDYWGQGTLVTVSS VL: QPGLTQPPSVSGAPGQRVTISCTGSSSNIGAGYDVHWYQQLPGTAPKLLIYGNSNRPSGVPDRFSGSKSGTSASLAITGLQAEDEADYYCQSYDSSLSGFYVFGTGTKLTVL | no binding | 33.3 |
| ADI-24800 (antibody, V domains shown, full-length IgG) VH: EVQLLESGGGLVKPGGSLRLSCAASGFTFSSYSMNWVRQAPGKGLEWVSSISSSSSYIYYADSVKGRFTISRDNAKNSLYLQMNSLRAEDTAVYYCARVRGGYSYGYGMDVWGQGTTVTVSS VL: QSVVTQPPSVSGAPGQRVTISCTGSSSNIGAGFDVHWYQQLPGTAPKLLIYGNSNRPSGVPDQFSGSKSGTSASLAITGLQAEDEADYYCQSYDSSLSGVVFGGGTKLTVL | no binding | 51.4 |
| ADI-19430 (antibody, V domains shown, full-length IgG) VH: QVQLVQSGAEVKKPGSSVKVSCKASGGTFSSYTISWVRQAPGQGLEWMGRIIPILGIANYAQKFQGRVTITADKSTSTAYMELSSLRSEDTAVYYCARDGGPYYYDSSGYYRLDYWGQGTLVTVSS VL: DIRMTQSPLSLPVTLGQPASISCRSSQSLVYSDGNTYLNWFQQRPGQSPRRLIYKVSNRDSGVPDRFSGSGSGTDFTLKISRVEAEDVGVYYCMQGTHWTYTFGQGTKLEIK | no binding | 16.8 |
| ADI-19454 (antibody, V domains shown, full-length IgG) VH: EVQLLESGGGLVKPGGSLRLSCAASGFTFSSYSMNWVRQAPGKGLEWVSSISSSSSYIYYADSVKGRFTISRDNAKNSLYLQMNSLRAEDTAVYYCARGYCSGGSCYSHYFQHWGQGTLVTVSS VL: QSVLTQPASVSGSPGQSITISCTGTSSDVGGYNYVSWYQQHPGKAPKLMIYDVSNRPSGVSNRFSGSKSGNTASLTISGLQAEDEADYYCSSYTSSSTVVFGGGTKVTVL | no binding | 15.7 |
| ADI-19450 (antibody, V domains shown, full-length IgG; also called Ab 160) VH: EVQLLESGGGLVQPGGSLRLSCAASGFTFSSYWMHWVRQAPGKGLVWVSRINSDGSSTSYADSVKGRFTISRDNAKNTLYLQMNSLRAEDTAVYYCARAPISILRFLGGYFDYWGQGTLVTVSS VL: not shown | no binding | 38.6 |
